These results are taken from patent publication US20180141977A1 (NORWEGIAN UNIVERSITY OF SCIENCE AND TECHNOLOGY NTNU, published 2018).

This assay addresses T1, β-clamp protein from E. coli (E. coli, UniProt P0A988 1-366, labeled with a fluorescent molecule (site not stated)).
T1 construct: Fluorescently labelled for microscale thermophoresis; also called sliding clamp
Put plainly: microscale thermophoresis, fluorescently labelled β-clamp, peptide titrated (table cell the 66th table, row 38, column 4 prints 'Nd').

T1 sequence (P0A988 whole entry): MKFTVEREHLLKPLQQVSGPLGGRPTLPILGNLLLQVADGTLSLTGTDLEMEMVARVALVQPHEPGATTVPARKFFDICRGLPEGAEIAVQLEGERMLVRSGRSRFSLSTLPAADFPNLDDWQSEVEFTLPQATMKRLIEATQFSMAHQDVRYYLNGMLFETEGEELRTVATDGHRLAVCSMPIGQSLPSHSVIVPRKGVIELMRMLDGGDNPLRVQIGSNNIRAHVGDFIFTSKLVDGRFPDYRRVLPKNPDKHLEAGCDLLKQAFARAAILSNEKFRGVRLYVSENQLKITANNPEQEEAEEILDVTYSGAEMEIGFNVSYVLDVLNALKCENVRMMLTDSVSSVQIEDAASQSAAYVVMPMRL

B1: R11 peptide (SEQ ID NO: 337) (peptide)
peptide: RRRRRRRRRRR
notes: Control peptide without APIM motif; also called cell penetrating peptide
B1: the binding result is “no binding”.
